Data reported in patent US20120014957A1 (AbbVie / Abbott, published 2012).

Legend:
Recombinant Human β-NGF = Recombinant Human β-NGF (human, UniProt P01138 122-241); experiment: cell-based or functional assay
NRP1 on cells [1] = biological target: T1, NRP1 on cells (UniProt O14786 22-923, limits assumed); experiment: flow cytometry on cells, DVD-Ig at 2 ug/mL
T1 construct: whole, on cells
Procedure: (§1) Stable cell lines overexpressing a cell-surface antigen of interest or human tumor cell lines were harvested from tissue culture flasks and resuspended in phosphate buffered saline (PBS) containing 5% fetal bovine serum (PBS/FBS). Prior to staining, human tumor cells were incubated on ice with (100 μl) human IgG at 5 μg/ml in PBS/FCS. 1−5×10⁵ cells were incubated with antibody or DVD-Ig (2 μg/mL) in PBS/FBS for 30-60 minutes on ice. Cells were washed twice and 100 μl of F(ab′)2 goat anti human IgG, Fcγ-phycoerythrin (1:200 dilution in PBS) (Jackson ImmunoResearch, West Grove, Pa., Cat. #109-116-170) was added. After a 30 minute incubation on ice, cells were washed twice and resuspended in PBS/FBS. Fluorescence was measured using a Becton Dickinson FACSCalibur (Becton Dickinson, San Jose, Calif.).
(§2) The geometric mean is the n root of the multiplication product of n fluorescent signals (a1×a2×a3 . . . an). With log-transformed data the geometric mean is used to normalize the weighting of the data distribution.

NRP1 on cells [2] = biological target: T1, NRP1 on cells; experiment: flow cytometry on cells, antibody at 2 ug/mL
Procedure: as §1, §2

| Binder | C-Terminal VD NGF Inhibition Assay EC50 (Recombinant Human β-NGF) | FACS Geometric Mean N-terminal (NRP1 on cells [1]) | FACS Geometric Mean (NRP1 on cells [2]) |
| --- | --- | --- | --- |
| DVD1352 (bispecific antibody, human IgG1, kappa, DVD-Ig; also called DVD1352H; DVD1352L) heavy: not shown light: DIQMTQSPSSLSASVGDRVTITCRASQSISSYLAWYQQKPGKAPKLLIYGASSRASGVPSRFSGSGSGTDFTLTISSLQPEDFATYYCQQYMSVPITFGQGTKVEIKRTVAAPDIQMTQSPSSLSASVGDRVTITCRASEDIYNALAWYQQKPGKAPKLLIYNTDTLHTGVPSRFSGSGSGTDYTLTISSLQPEDFATYFCQHYFHYPRTFGQGTKVEIKRTVAAPSVFIFPPSDEQLKSGTASVVCLLNNFYPREAKVQWKVDNALQSGNSQESVTEQDSKDSTYSLSSTLTLSKADYEKHKVYACEVTHQGLSSPVTKSFNRGEC | 0.226 nM | 42 |  |
| AB016 (antibody, V domains shown, Parent antibody; also called NRP1) VH: EVQLVESGGGLVQPGGSLRLSCAASGFSFSSEPISWVRQAPGKGLEWVSSITGKNGYTYYADSVKGRFTISADTSKNTAYLQMNSLRAEDTAVYYCARWGKKVYGMDVWGQGTLVTVSS VL: DIQMTQSPSSLSASVGDRVTITCRASQSISSYLAWYQQKPGKAPKLLIYGASSRASGVPSRFSGSGSGTDFTLTISSLQPEDFATYYCQQYMSVPITFGQGTKVEIKR |  |  | 338 |
